PMC7695694, “Yeast Nup84-Nup133 complex structure details flexibility and reveals conservation of the membrane anchoring ALPS motif” (Nature Communications, 2020)

Tests used:
Settings in all cases: both partners purified
[1] = molecular target: T1, Nup133 N-terminal domain (Nup133NTD, residues 55-481, S. cerevisiae) (S. cerevisiae, UniProt P36161); experiment: crystal structure; Nup133NTD-VHH-SAN4, 2.1 Å, molecular replacement; crystals at 18 °C, PEG 3,350, ammonium sulfate, Bis-Tris/HCl pH 5.5
T1 construct: Nup133, S. cerevisiae, N-terminal beta-propeller domain, residues 55-481; The 6xHis tag is 3C cleavable; also called scNup133NTD; WT-Nup133NTD; source: E. coli LOBSTR-RIL(DE3), purified (Ni Sepharose, Superdex 75)
T1 sequence (P36161 55-481): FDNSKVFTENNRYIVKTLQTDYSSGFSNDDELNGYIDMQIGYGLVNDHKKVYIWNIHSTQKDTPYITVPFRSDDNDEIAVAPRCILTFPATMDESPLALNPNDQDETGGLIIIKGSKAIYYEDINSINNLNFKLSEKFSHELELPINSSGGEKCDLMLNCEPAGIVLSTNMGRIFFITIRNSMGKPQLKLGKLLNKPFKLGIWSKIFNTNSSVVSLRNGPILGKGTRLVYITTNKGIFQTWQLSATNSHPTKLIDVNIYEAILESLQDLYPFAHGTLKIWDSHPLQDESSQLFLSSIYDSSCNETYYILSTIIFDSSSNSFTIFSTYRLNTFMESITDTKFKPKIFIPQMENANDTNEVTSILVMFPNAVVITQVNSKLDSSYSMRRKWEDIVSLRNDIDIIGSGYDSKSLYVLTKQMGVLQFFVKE

[2] = molecular target: T2, Nup84-Nup133CTD heterodimeric complex (S. cerevisiae) (Saccharomyces cerevisiae (strain ATCC …, UniProt P52891;P36161)); experiment: crystal structure; Nup84-Nup133CTD with VHH-SAN8 and VHH-SAN9, 7.4 Å; crystallised under the same conditions and in the same crystal form as the VHH-SAN8 complex
T2 construct: Nup84, S. cerevisiae, full length; source: E. coli LOBSTR-RIL(DE3), co-expressed from a bicistronic vector, purified (Ni Sepharose, SP Sepharose, Superdex 200)
T2 sequence (P52891 whole entry, chain 1 of 2): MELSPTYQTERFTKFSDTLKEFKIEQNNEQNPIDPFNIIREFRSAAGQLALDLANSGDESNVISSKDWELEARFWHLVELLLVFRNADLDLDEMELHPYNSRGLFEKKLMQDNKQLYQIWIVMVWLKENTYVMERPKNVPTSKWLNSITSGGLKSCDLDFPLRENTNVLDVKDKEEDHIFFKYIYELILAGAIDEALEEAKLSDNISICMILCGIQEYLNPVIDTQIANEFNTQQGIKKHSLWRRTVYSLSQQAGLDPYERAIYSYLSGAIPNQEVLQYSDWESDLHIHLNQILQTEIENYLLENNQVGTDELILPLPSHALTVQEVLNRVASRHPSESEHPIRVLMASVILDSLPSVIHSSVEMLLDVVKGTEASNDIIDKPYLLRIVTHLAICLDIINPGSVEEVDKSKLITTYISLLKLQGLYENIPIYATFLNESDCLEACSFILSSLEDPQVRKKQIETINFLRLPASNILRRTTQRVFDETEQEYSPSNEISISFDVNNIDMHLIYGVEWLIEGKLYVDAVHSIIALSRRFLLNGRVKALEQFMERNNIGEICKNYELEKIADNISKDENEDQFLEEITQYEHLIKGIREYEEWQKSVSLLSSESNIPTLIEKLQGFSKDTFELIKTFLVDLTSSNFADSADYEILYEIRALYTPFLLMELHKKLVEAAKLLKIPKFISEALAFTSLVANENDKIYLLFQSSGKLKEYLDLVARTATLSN
T2 sequence (P36161 521-1157, chain 2 of 2): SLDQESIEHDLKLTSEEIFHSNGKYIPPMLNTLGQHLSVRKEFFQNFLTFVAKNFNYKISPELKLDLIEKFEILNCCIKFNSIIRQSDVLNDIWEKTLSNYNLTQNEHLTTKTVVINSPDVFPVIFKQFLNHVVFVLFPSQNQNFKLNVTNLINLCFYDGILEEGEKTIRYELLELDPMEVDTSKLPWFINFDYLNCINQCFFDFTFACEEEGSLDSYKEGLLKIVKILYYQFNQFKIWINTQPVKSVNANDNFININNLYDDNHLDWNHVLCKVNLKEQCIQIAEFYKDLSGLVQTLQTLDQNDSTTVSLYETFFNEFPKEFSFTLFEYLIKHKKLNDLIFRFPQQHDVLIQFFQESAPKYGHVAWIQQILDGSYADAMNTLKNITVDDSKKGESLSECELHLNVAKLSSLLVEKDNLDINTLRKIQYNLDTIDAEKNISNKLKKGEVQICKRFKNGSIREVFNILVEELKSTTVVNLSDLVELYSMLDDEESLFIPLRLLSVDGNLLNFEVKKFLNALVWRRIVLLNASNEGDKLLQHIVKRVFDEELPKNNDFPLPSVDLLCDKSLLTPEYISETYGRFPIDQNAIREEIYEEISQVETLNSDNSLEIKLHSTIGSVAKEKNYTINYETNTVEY

[3] = molecular target: T3, Nup84 (full-length, S. cerevisiae) (S. cerevisiae, UniProt P52891); experiment: as above
T3 construct: Nup84, S. cerevisiae, full length; The N-terminal 10xHis-8xArg-SUMO tag is 3C cleavable; also called scNup84
T3 sequence (P52891 whole entry): as the sequence (P52891 whole entry, chain 1 of 2) above

[4] = molecular target: T1, Nup133 N-terminal domain (Nup133NTD, …); experiment: crystal structure; Nup133NTD-VHH-SAN5, molecular replacement; six copies in the asymmetric unit; crystals at 18 °C, PEG MME 2,000, potassium chloride, Tris/HCl pH 8.0
[5] = molecular target: T2, Nup84-Nup133CTD heterodimeric complex …; experiment: crystal structure; Nup84-Nup133CTD-VHH-SAN8, 6.4 Å, SAD with a [TeW6O24]6- derivative; crystals at 18 °C, PEG 8,000, ethylene glycol, imidazole/MES pH 6.5
[6] = molecular target: T3, Nup84 (full-length, S. cerevisiae); experiment: as above

B1: VHH-SAN4 (VHH)
VHH: QLQLVESGGGSVQAGGSLTLSCTASESISKRIHGIGWFRQRRGEQREEIAYITTGGRPNLGDSVKDRFTISRDKSNGTVYLQMNSLKPEDTAVYYCHGRGRWWGTEGRLDYWGQGTQVTVSS
notes: structure with this nanobody deposited as PDB 6X05; also called nanobody VHH-SAN4; source: E. coli LOBSTR-RIL(DE3), purified (Ni Sepharose, tag cut with bdSENP1, Superdex 75); not shown: 14xHis, N-terminal, cleaved; bdSUMO, N-terminal, cleaved
binding result [1]: binds

B2: VHH-SAN9 (VHH)
VHH: QVQLVESGGGSVQAGGSLRLSCAVSGGTLSTLAMGWFRQAPGQEREFVARIGWTNGDTGYADSVKGRFTISRDNVKNTVYLQMNNLKPEDTALYYCATRRPYGSTLYPPNTESAHDNWGQGTQVTVSS
notes: structure with this nanobody deposited as PDB 6X03 (modelled as a generic nanobody without CDRs); also called VHH9; nanobody VHH-SAN9; source: E. coli LOBSTR-RIL(DE3), purified (Ni Sepharose, tag cut with bdSENP1, Superdex 75); not shown: 14xHis, N-terminal, cleaved; bdSUMO, N-terminal, cleaved
binding result [2]: binds | binding result [3]: binds

B3: VHH-SAN5 (VHH)
VHH: QVQLVESGGGLVQAGGSLRLSCAASGSIGSLDAMAWYRRAPGKQRERVASISRYGTYYVDSVKGRFTISRDNAKNTVYLQMNSLKPEDTGVYYCKGVMEVGGVIDEYWGQGTQVTVSS
notes: structure with this nanobody deposited as PDB 6X04; also called nanobody VHH-SAN5; source: E. coli LOBSTR-RIL(DE3), purified (Ni Sepharose, tag cut with bdSENP1, Superdex 75); not shown: 14xHis, N-terminal, cleaved; bdSUMO, N-terminal, cleaved
binding result [4]: binds

B4: VHH-SAN8 (VHH)
VHH: QLQLVETGGGLVQAGGSLRLSCVASGRTFTSYAMGWFRQAPGKEREFVAAISRLASGTDYADSVKGRFTISRNNDKNTVYLQMNNLIPEDTAVYYCAALQALRFSLPIAMATMKNGRADSWGQGTQVTVSS
notes: structures with this nanobody deposited as PDB 6X02 and 6X03 (modelled as a generic nanobody without CDRs); Selected by phage display from an alpaca immunised with the full-length Y complex, panned against Nup84; also called VHH8; nanobody VHH-SAN8; source: E. coli LOBSTR-RIL(DE3), purified (Ni Sepharose, tag cut with bdSENP1, Superdex 75); not shown: 14xHis, N-terminal, cleaved; bdSUMO, …
binding result [5]: binds | binding result [6]: binds
